We go through five molecules from publication PMC7979749, “Structural basis of the dynamic human CEACAM1 monomer-dimer equilibrium” (Communications Biology, 2021).

Series [1] addresses human CEACAM1 IgV domain, N97A mutant (human) (UniProt P13688). In words: NMR titration; 15N-HSQC spectra at varying protein concentration (N97A 16-500 μM; WT 10 μM and 1 mM); 10 mM HEPES, 50 mM NaCl, pH 7.0, 25 °C; dimer to monomers; rough estimate from peak trajectories of Q44 and A49.
The target in series [2] is CEACAM1 IgV (Homo sapiens) (UniProt P13688). Conditions: cited from earlier work.
In another series the target is TIM-3 IgV (Homo sapiens) (UniProt Q8TDQ0). Conditions: cited from earlier work.
TIM-3 IgV (Homo sapiens), sequence (Q8TDQ0 22-124): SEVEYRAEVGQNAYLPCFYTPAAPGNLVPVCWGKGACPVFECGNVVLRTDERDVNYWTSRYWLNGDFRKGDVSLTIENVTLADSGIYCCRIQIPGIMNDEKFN
Series [3] concerns the molecule itself. In words: SEC-MALS; samples at 100 μM injected onto TSK-gel Bioassist G4SWxl, 10 mM HEPES pH 7.4, 150 mM, 0.5 mL/min; self-association, monomer to dimer.
Series [4] concerns the molecule itself. Nature of the series: crystal structure; mutant proteins concentrated to 10 mg/ml (exceeding 800 μM); molecular replacement with PDB 4QXW; self-association in the asymmetric unit.

For the molecule “human CEACAM1 IgV domain, N97A mutant (from UniProt P13688 35-141) (domain or fragment)”, the Kd in series [1] was above 1000 µM.

Regarding CEACAM1 IgV (from UniProt P13688), the Kd in series [2] is 0.45 µM; with TIM-3 IgV (Homo sapiens) it was 2.5 µM.

B1: human CEACAM1 IgV domain, wildtype (domain or fragment)
chain: AQLTTESMPFNVAEGKEVLLLVHNLPQQLFGYSWYKGERVDGNRQIVGYAIGTQQATPGPANSGRETIYPNASLLIQNVTQNDTGFYTLQVIKSDLVNEEATGQFHVY
notes: Carcinoembryonic antigen-related cell adhesion molecule 1 (CEACAM1), human, N-terminal IgV domain; NMR samples were 15N/13C or 15N/13C/2H labelled; also called hCEACAM1 WT IgV; WT; source: isotope-labelled samples expressed from E. coli in M9 minimal medium, purified
As to B1, the “stoichiometry N” value in series [3] was found to be 2.

B2: human CEACAM1 IgV domain, V39A mutant (domain or fragment)
chain: QLTTESMPFNVAEGKEVLLLVHNLPQQLFGYSWYKGERADGNRQIVGYAIGTQQATPGPANSGRETIYPNASLLIQNVTQNDTGFYTLQVIKSDLVNEEATGQFHVY
notes: unglycosylated; also called hCEACAM1 V39A
Consider B2, for which the binding result in series [3] is reported as “binds”.

B3: human CEACAM1 IgV domain, I91A mutant (domain or fragment)
chain: QLTTESMPFNVAEGKEVLLLVHNLPQQLFGYSWYKGERVDGNRQIVGYAIGTQQATPGPANSGRETIYPNASLLIQNVTQNDTGFYTLQVAKSDLVNEEATGQFHVY
notes: unglycosylated
On to B3, for which the binding result in series [4] is listed as “binds”.
